From patent US20200247855A1, “THERAPY AND DIAGNOSTICS” (OXFORD UNIVERSITY INNOVATION LIMITED, priority 2017, published 2020)
Positions count from the first letter of the chain named. “Also recorded” adds a separate entry of the source.

What was measured:
chemokines = settings: list of chemokines bound, from the literature [18,20-22]; cited from earlier work
CCL18_HUMAN = molecular target: T1, CCL18_HUMAN (Homo sapiens, UniProt P55774); assay: Biolayer interferometry (BLI) binding
T1 sequence (P55774 21-89): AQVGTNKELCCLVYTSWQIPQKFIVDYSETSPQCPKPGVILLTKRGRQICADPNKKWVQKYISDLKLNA
Description: (§1) Table 1. Tick CKBPs described in PCT/GB2017/050563 and [17]. Tick peptide sequences isolated in yeast surface display fluorescent-activated cell sorting (FACS) screens using a labelled chemokine. Identity with Evasin-1, 4 or 3 was calculated using BLAST. Abbreviations: IXORI—Ixodes ricinus, RHISA—Rhipicephalus sanguineus, AMBMA—Amblyomma maculatum, AMBPA—Amblyomma parvum, AMBTR—Amblyomma triste, AMBAM—Amblyomma americanum, AMBCA—Amblyomma cajennense, RHIPU—Rhipicephalus pulchellus. Table 2A-C. Binding characteristics of tick CKBPs previously disclosed (PCT/GB2017/050563 and [17]). All members of the human chemokine family[164] are listed in column 1. Binding to human chemokines was determined for 14 tick CKBPs using biolayer interferometry (BLI) with calculated Kd shown as Molar (Moles/Litre). Binding data for 17 other novel tick CKBPs was assayed using yeast surface display[17,166],with positive binding results shown as “YES”. For biolayer interferometry, His-tagged purified tick CKBP was bound to a Ni-NINTA sensor on an OctetRed® 384 system, and then binding to each chemokine listed (with the exception of CCL25, CCL26, CXCL16, CXCL17, CXCL4L1, XCL2) was assayed in a cross-binding screen at a chemokine concentration of 300 nM as described. For those chemokines showing binding to a tick CKBP in the cross-binding screen, binding assays were repeated using different doses of chemokine. Association, equilibrium and dissociation data were analysed using Octet software to create corresponding fitted curves, and used to calculate Kd. For yeast surface display, (YSD) background fluorescence was controlled for by using either an empty vector or by omitting the chemokine (i.e. using streptavidin-Alexa647 alone). An arbitrary threshold of >3 fold over background mean fluorescence intensity was chosen to describe confirmed re-tests. Where binding was detected data are indicated as “YES”. […] For yeast surface display data, empty cells represent chemokines that were not tested. Binding data published in relation to previously described tick CKBPs (Evasins-1, 4 and 3) is also shown for comparison in each of FIGS. 2A-C, with the relevant data obtained from publications: [20-22,32]. Table 3: Neutralisation of human chemokines by tick CKBPs previously disclosed (PCT/GB2017/050563 and [17]). Neutralising activity was determined using a quantitative THP1 cell migration assay in a 96-well Boyden chamber with chemokine in the bottom chamber as described. Cells migrating through to the bottom chamber at 4 hours were counted using flow cytometry in a 96 well plate format. IC50 for neutralisation was determined at the chemokine EC80 dose as determined using a range of tick CKBP concentrations. Data was analysed using GraphPad Prism to determine IC50, which is shown as Molar (Moles/Litre). Empty cells represent experiments not done. Table 4—Other previously described tick CKBPs. Tick CKBPs that were also described in PCT/GB2017/050563 and Singh et al. are indicated in “Notes”. Table 5.—Novel tick CKBPs of the invention. Table 6. […] The peptide sequence prefix indicates the identity, and suffix indicate the tick species as follows: AMBCA, Amblyomma cajennense and IXORI, Ixodes ricinus. […] Certain tick peptides e.g. P1074_IXORI were recovered from screens performed with more than one chemokine. Individual yeast clones recovered from the library were re-tested using a FACS (fluorescence activated cell sorting), experiment. The binding of the peptide to the chemokine was assayed by measuring the percent (%), of yeast cells expressing the given peptide that exceeded a background threshold set by measuring the fluorescence of the yeast library pool treated with streptavidin-[…] alone. When more than one independent yeast clone was isolated for a given peptide-chemokine combination, the mean percent shift was calculated and reported in column 3. […]

CCL16_HUMAN = molecular target: T2, CCL16_HUMAN (Homo sapiens, UniProt O15467); assay: Biolayer interferometry (BLI) binding
T2 sequence (O15467 24-120): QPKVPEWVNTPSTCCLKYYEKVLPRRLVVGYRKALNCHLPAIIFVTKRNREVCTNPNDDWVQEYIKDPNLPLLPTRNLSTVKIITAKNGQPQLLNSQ
Description: as §1

CCL14_HUMAN = molecular target: T3, CCL14_HUMAN (Homo sapiens, UniProt Q16627); assay: Biolayer interferometry (BLI) binding
T3 sequence (Q16627 20-93): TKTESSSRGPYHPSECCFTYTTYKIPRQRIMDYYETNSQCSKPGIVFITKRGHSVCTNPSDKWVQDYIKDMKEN
Description: as §1

CCL3_HUMAN = molecular target: T4, CCL3_HUMAN (Homo sapiens, UniProt P10147); assay: Biolayer interferometry (BLI) binding
T4 sequence (P10147 24-92): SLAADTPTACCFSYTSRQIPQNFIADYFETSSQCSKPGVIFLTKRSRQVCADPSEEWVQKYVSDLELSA
Description: as §1

CCL13_HUMAN = CCL13_HUMAN (Homo sapiens, UniProt Q99616); assay: Biolayer interferometry (BLI) binding
Description: as §1

CCL1_HUMAN = molecular target: T5, CCL1_HUMAN (Homo sapiens, UniProt P22362); assay: Biolayer interferometry (BLI) binding
T5 sequence (P22362 24-96): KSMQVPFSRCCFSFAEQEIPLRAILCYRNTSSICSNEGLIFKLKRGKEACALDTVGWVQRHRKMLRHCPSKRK
Description: as §1

CCL7_HUMAN = CCL7_HUMAN (Homo sapiens, UniProt P80098); assay: Biolayer interferometry (BLI) binding
Description: as §1

CCL4_HUMAN = molecular target: T6, CCL4_HUMAN (Homo sapiens, UniProt P13236); assay: Biolayer interferometry (BLI) binding
T6 sequence (P13236 24-92): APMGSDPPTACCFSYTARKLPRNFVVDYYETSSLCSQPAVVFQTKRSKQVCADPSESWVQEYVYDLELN
Description: as §1

CCL8_HUMAN = molecular target: T7, CCL8_HUMAN (Homo sapiens, UniProt P80075); assay: Biolayer interferometry (BLI) binding; settings: read-out: Kd, CCL8_HUMAN
T7 sequence (P80075 24-99): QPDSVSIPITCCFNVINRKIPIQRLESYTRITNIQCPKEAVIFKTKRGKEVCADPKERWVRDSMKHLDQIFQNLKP
Description: as §1

CCL3L1_HUMAN = CCL3L1_HUMAN (Homo sapiens, UniProt P16619); assay: Biolayer interferometry (BLI) binding
Description: as §1

CCL11_HUMAN = CCL11_HUMAN (Homo sapiens, UniProt P51671); assay: Biolayer interferometry (BLI) binding
Description: as §1

CCL4L1_HUMAN = molecular target: T8, CCL4L1_HUMAN (Homo sapiens, UniProt Q8NHW4); assay: Biolayer interferometry (BLI) binding
T8 sequence (Q8NHW4 24-92): T6 sequence (P13236 24-92) with S47G
Description: as §1

CCL2_HUMAN = CCL2_HUMAN (Homo sapiens, UniProt P13500); assay: Biolayer interferometry (BLI) binding
Description: as §1

CCL20_HUMAN = CCL20_HUMAN (Homo sapiens, UniProt P78556); assay: Yeast surface display (YSD) FACS binding
Description: as §1

CCL5_HUMAN = molecular target: T9, CCL5_HUMAN (Homo sapiens, UniProt P13501); assay: Yeast surface display (YSD) FACS binding
T9 sequence (P13501 24-91): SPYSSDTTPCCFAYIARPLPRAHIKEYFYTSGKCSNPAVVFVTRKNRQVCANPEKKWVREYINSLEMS
Description: as §1

CCL17_HUMAN = molecular target: T10, CCL17_HUMAN (Homo sapiens, UniProt Q92583); assay: Yeast surface display (YSD) FACS binding
T10 sequence (Q92583 24-94): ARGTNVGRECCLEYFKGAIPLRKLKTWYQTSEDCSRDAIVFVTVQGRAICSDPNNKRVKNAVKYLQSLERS
Description: as §1

CXCL8_HUMAN = molecular target: T11, CXCL8_HUMAN (Homo sapiens, UniProt P10145); assay: Yeast surface display (YSD) FACS binding; parameters: label (chemical); settings: yeast surface display
T11 sequence (P10145 21-99): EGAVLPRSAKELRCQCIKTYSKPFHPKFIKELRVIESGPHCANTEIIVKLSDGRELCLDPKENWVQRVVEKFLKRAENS
Description: as §1

CXCL12_HUMAN = CXCL12_HUMAN (Homo sapiens, UniProt P48061); assay: Yeast surface display (YSD) FACS binding; settings: FACS re-test; mean percent shift where several clones
Description: as §1

CXCL9_HUMAN = molecular target: T12, CXCL9_HUMAN (Homo sapiens, UniProt Q07325); assay: Yeast surface display (YSD) FACS binding; settings: FACS re-test; mean percent shift where several clones
T12 sequence (Q07325 23-125): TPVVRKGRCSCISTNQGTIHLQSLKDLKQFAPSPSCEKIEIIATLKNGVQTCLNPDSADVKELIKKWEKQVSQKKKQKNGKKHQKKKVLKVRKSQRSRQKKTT
Description: as §1

Sequence of CCL20_HUMAN (P78556 27-96): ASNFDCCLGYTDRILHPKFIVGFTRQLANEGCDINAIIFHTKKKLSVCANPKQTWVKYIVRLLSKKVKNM
Sequence of CCL3L1_HUMAN (P16619 24-93): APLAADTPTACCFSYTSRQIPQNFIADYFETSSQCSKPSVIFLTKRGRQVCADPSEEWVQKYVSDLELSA
Sequence of CCL7_HUMAN (P80098 24-99): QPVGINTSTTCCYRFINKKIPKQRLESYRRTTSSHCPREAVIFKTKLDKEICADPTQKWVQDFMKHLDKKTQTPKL
Sequence of CCL13_HUMAN (Q99616 17-98): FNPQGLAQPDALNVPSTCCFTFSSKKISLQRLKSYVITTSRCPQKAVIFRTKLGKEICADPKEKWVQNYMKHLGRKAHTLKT
Sequence of CCL2_HUMAN (P13500 24-99): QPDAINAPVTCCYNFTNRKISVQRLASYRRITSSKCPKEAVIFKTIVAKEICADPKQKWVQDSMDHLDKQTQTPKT
Sequence of CCL11_HUMAN (P51671 24-97): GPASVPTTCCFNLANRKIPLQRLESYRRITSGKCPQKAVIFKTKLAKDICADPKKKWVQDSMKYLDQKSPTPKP
Sequence of CXCL12_HUMAN (P48061 22-93): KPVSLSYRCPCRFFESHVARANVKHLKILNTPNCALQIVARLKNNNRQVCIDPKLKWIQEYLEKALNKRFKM

B1: P467_RHIPU: tick CKBP (evasin), Rhipicephalus pulchellus; RPU-01 stated identical (protein, listed as Rhipicephalus pulchellus)
chain: AEKSLDSDSSGEDYELWTQGCPFLVAENRTGFGTTVSCQHNCNGAIEKVPEGEPCYTIGEDGLGRMKLNLPYNCSLGECSGGVCVPNGRSDVCFKRTWEENNKAMA
Previously described chemokine binding (chemokines): CCL11, CCL24,; also recorded: CCL26, CCL2,; also recorded: CCL8, CCL7
Kd (CCL18_HUMAN): 16.6 nM
Kd (CCL16_HUMAN): 14.1 nM
Kd (CCL14_HUMAN): 4.13 nM
Kd (CCL3_HUMAN): 0.363 nM
Kd (CCL13_HUMAN): 2.56 nM
Kd (CCL1_HUMAN): 53.4 nM
Kd (CCL7_HUMAN): 2.15 nM
Kd (CCL4_HUMAN): 13.6 nM
Kd (CCL8_HUMAN): 2.85 nM
Kd (CCL3L1_HUMAN): 0.524 nM
Kd (CCL11_HUMAN): 1.4 nM
Kd (CCL4L1_HUMAN): 4.72 nM
Kd (CCL2_HUMAN): 1 pM

B2: P993_AMBPA: tick CKBP, Amblyomma parvum (protein, listed as Amblyomma parvum)
chain: HRHYDPNEPCLIAGLKTPRDALPAGCRYDCMIKKNQKLRDGLLCLDVPEKVVKRMVNYLNYSCPLGTCRKGICKRKHRNVRCQKYPVFYMSPPK
Binding to CCL20_HUMAN, YSD (CCL20_HUMAN): YES (An arbitrary threshold of >3 fold over background mean fluorescence intensity was chosen to describe confirmed re-tests. Where binding was detected data are indicated as “YES”)
Binding to CCL5_HUMAN, YSD (CCL5_HUMAN): YES (An arbitrary threshold of >3 fold over background mean fluorescence intensity was chosen to describe confirmed re-tests. Where binding was detected data are indicated as “YES”)
Binding to CCL17_HUMAN, YSD (CCL17_HUMAN): YES (An arbitrary threshold of >3 fold over background mean fluorescence intensity was chosen to describe confirmed re-tests. Where binding was detected data are indicated as “YES”)
Binding to CXCL8_HUMAN, YSD (CXCL8_HUMAN): YES (An arbitrary threshold of >3 fold over background mean fluorescence intensity was chosen to describe confirmed re-tests. Where binding was detected data are indicated as “YES”)

B3: P1252_AMBAM: tick CKBP, Amblyomma americanum (protein, listed as Amblyomma americanum)
chain: RGGAASVPANASIPGCGDAQTTPAAPEDQPKHYVVYRDGNGCEVKIIGTWMTTEDYNCLPDTFRKNRAPHGKVKLPASCKKTCGNAVQNLKDGTPCRKVFGDLGRRRNLIKNGCLVGACQSGLCVSGNRTISCYIPPNSTDTRATPGSFAE
Binding to CCL20_HUMAN, YSD (CCL20_HUMAN): YES (An arbitrary threshold of >3 fold over background mean fluorescence intensity was chosen to describe confirmed re-tests. Where binding was detected data are indicated as “YES”)
Binding to CCL17_HUMAN, YSD (CCL17_HUMAN): YES (An arbitrary threshold of >3 fold over background mean fluorescence intensity was chosen to describe confirmed re-tests. Where binding was detected data are indicated as “YES”)

B4: P1080_IXORI: novel CXC-binding tick CKBP, Ixodes ricinus (protein, listed as Ixodes ricinus)
chain: SAGSKGSSAPQSSGDSVVAEFCDTNCTMKKDGKWTECNGDCFCVHVGNETVGRCMRLDGDYDYTSSKTTRRNKKTRNGLCRLDRNRTTVDYPERNTREP
Chemokines bound in yeast surface display and % cells over threshold fluorescence: CXCL12_HUMAN (CXCL12_HUMAN): CXCL12_HUMAN 53%;
Chemokines bound in yeast surface display and % cells over threshold fluorescence: CXCL9_HUMAN (CXCL9_HUMAN): CXCL9_HUMAN 49%

B5: P1100_IXORI: novel CXC-binding tick CKBP, Ixodes ricinus (protein, listed as Ixodes ricinus)
chain: GSKGSSASQSSDNSVVAKFCDTNCTINEGGKWTECKGGCFCVHVGNETVGRCMKLDGDYDYPSPKPEE
Chemokines bound in yeast surface display and % cells over threshold fluorescence: CXCL9_HUMAN (CXCL9_HUMAN): CXCL9_HUMAN 55%

B6: P1126_AMBCA: novel CXC-binding tick CKBP, Amblyomma cajennense (protein)
chain: KPQILQRTDKSTDSEWDPQTCPETCIPSKNITCSDGCVCVKLGEEEEGTCFNMTGVDWLGSPSDD
modifications: Amblyomma cajennense
Chemokines bound in yeast surface display and % cells over threshold fluorescence: CXCL9_HUMAN (CXCL9_HUMAN): CXCL9_HUMAN 56%

B7: P458_IXORI: novel CXC-binding tick CKBP, Ixodes ricinus (protein, listed as Ixodes ricinus)
chain: GSKQPGAAGSSSDSVEAVFCPTNCTKGTNGAWSGCSDDCICVHVGENTEGSCMKFSGDYDYPTPEA
Chemokines bound in yeast surface display and % cells over threshold fluorescence: CXCL9_HUMAN (CXCL9_HUMAN): CXCL9_HUMAN 37%

B8: P1074_IXORI: novel CXC-binding tick CKBP, Ixodes ricinus (protein, listed as Ixodes ricinus)
chain: GSKESSAHQSSDDSIKAEFCDAKCTMKTDGKWTQCHGGCFCVHVGNETEGRCMRLDGDYDYPSTQPEE
Chemokines bound in yeast surface display and % cells over threshold fluorescence: CXCL9_HUMAN (CXCL9_HUMAN): CXCL9_HUMAN 35%
